Reference: patent US20090324700A1, “METHODS AND COMPOSITIONS FOR THE INHIBITION OF CATHEPSINS” (priority 2003, published 2009)

Experiments:
RelA^−/− MEFs [1] = test: ROS production (dihydroethidium), RelA^−/− MEFs; type: cell-based, mouse; details: TNF-α 0.2 ng/ml, CHX 0.1 μg/ml; FIG. 5D
Protocol: (§1) Death effector assays. Death effector pathways were induced in […] MEFs by treatment TNF-α (0.2 ng/ml) and CHX (0.1 μg/ml). Assays for executioner proteases (caspases and cathepsin B) were performed on crude cytoplasmic extracts (Stegh et al., 2000). Briefly, MEFs (10^6) were lysed in 10 mM Tris-Cl, pH 7.5, 100 mM NaCl, 1 mM EDTA, 0.01% Triton X-100 (50 μl) for 30 min on ice then centrifuged at 15,000 g for 30 min at 4° C. and the supernatant recovered. Protein concentration was determined by Lowry assay (DC-protein assay kit, Biorad). Western immunoblots were performed on crude cytosolic extracts (50 μg per lane) using standard protocols and probed with the following antibodies: goat anti-mouse Bid antiserum (1 μg/ml; R&D systems), rabbit anti-human caspase 9 antiserum (2 μg/ml; Cell Signaling Technology), rabbit anti-human caspase 3 antiserum (2 μg/ml; Cell Signaling Technology), mouse anti-human caspase 8 monoclonal antibody clone 12F5 (1 μg/ml; Axxora). […]
(§2) Mitochondrial membrane potential and ROS production were measured using the fluorescent dyes JC-1 (3 μg/ml) and dihydroethidium (HE) (5 μM)(Molecular Probes) respectively, and flow cytometry according to the manufacturer's instructions.

NF-κB = NF-κB activation, EMSA, RelA^−/− MEFs; type: cell-based, mouse; details: TNF-α stimulation
Protocol: The possibility that Spi2A protects from TNF-α-induced apoptosis by directly activating NF-κB was examined. Therefore, using electrophoretic mobility shift assays (EMSAs), studies were conducted to determine whether Spi2A itself promotes NF-κB activation in nuclei from Rel A^−/− MEFs transduced with Spi2A or whether the abrogation of Spi2A mRNA up-regulation by Spi2A antisense message inhibits NF-κB activation in Rel A^+/+ MEFs. […] In Rel A^+/+ MEFs, super-shift analysis confirmed the induction of p50/Rel A by TNF-α. […] Thus, the anti-apoptotic activity of Spi2A is unlikely to be mediated through the modulation of NF-κB activation.

cathepsin B = target: T1, cathepsin B (Homo sapiens, UniProt P07858); test: Kinetics of cathepsin B inhibition by Spi2A; type: biochemical
T1 construct: purchased Calbiochem or Athens Research and Technology

human cathepsin G = target: T2, human cathepsin G (Homo sapiens, UniProt P08311); test: Protease specificity of Spi2A: cathepsin G; type: biochemical; details: protease 20 nM, Spi2A 200 nM, 1 h at 37° C; FIG. 6B
T2 construct: purchased Calbiochem or Athens Research and Technology
T2 sequence (P08311 21-244): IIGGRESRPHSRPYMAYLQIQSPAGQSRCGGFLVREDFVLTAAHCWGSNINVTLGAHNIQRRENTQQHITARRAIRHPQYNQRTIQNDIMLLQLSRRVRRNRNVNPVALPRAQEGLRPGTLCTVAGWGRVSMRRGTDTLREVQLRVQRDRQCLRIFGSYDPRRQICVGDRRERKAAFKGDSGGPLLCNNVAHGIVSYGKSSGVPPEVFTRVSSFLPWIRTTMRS
Protocol: (§3) Protease specificity of Spi2A. RelA^−/− MEFs were transduced with retrovirus encoding Spi2A with a C-terminal 3×FLAG epitope tag and Spi2A-3×FLAG purified using a method described previously (Cooley et al., 1998). Briefly, cells (3×10^9) were lysed and Spi2A-3×FLAG (75 μg) purified by batch Q-Fast Flow ion-exchange chromatography (Pharmacia Biotech) after elution at 160-220 mM NaCl followed by anti-FLAG antibody columns, performed according to manufacturer's instructions (Sigma-Aldrich). Spi2A-3×FLAG was dialysed into PBS and stored as aliquots at −80° C. until needed.
(§4) Proteases were purchases from the manufacturers (Calbiochem or Athens Research and Technology) except granzymes A and B which were purified as described (Hanna et al., 1993) and cathespin V and K, which were purified as described (Bromme et al., 1999; Linnevers et al., 1997). Proteases (20 nM) were incubated in the appropriate assay buffer with Spi2A at 200 nM (at least 10-fold excess of inhibitor to maintain pseudo-first order conditions) for 1 h at 37° C. Control samples included only the enzyme, without the inhibitor. At the end of 1 h protease activity was assayed. […] Substrate hydrolysis was measured in a fluorescence microtiter plate reader (Spectramax Gemini XS, Molecular Devices). Percentage inhibition was calculated from the residual enzyme activity compared to no Spi2A controls. […]

caspase 9 = target: T3, caspase 9 (Homo sapiens, UniProt P55211); test: Protease specificity of Spi2A: caspase 9; type: biochemical; details: FIG. 6B
T3 construct: purchased Calbiochem or Athens Research and Technology
T3 sequence (P55211 1-315 limits assumed): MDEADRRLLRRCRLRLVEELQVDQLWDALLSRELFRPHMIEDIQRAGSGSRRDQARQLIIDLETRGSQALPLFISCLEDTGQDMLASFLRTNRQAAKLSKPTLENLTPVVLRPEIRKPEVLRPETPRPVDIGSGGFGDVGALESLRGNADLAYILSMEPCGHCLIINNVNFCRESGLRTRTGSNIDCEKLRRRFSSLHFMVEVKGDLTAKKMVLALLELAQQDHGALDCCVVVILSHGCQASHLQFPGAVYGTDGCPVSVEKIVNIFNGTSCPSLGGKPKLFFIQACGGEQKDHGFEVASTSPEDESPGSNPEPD
T3 sequence (P55211 331-416 limits assumed): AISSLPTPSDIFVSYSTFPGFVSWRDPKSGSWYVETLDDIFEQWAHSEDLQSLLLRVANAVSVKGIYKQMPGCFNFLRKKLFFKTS
Protocol: as §3, §4

RelA^−/− MEFs [2] = test: Mitochondrial membrane potential (JC-1), RelA^−/− MEFs; type: cell-based, mouse; details: TNF-α 0.2 ng/ml, CHX 0.1 μg/ml; FIG. 5C
Protocol: as §1, §2

B1: Spi2A: murine Spi2A polypeptide, SEQ ID NO:2; purified as C-terminal 3×FLAG protein or expressed from MIGR1 retrovirus in cells and bone-marrow chimeras (protein, listed as Mus musculus)
chain: MAGVSPAVFGCPDVTLGRNTAVREVQENVTSVDSLTLVSSNTDFAFSLYRKLVLKNPDENVVFSPFSICTALALLSLGAKSNTLKEILEGLKFNLTETPEPDIHQGFRYLLDLLSQPGNQVQISTGSALFIEKHLQILAEFKEKARALYQAEAFTADFQQPLKATKLINDYVSNHTQGKIKELISGLKESTLMVLVNYIYFKGKWKNPFDPNDTFKSEFYLDEKRSVIVSMMKTGYLTTPYFRDEELSCTVVELKYTGNASAMFILPDQGRMQQVEASLQPETLRKWKNSLKPRMIHELRLPKFSISTDYSLEHILPELGIREVFSTHADLSAITGTKDLRVSQVVHKAVLDVAEKGTEAAAATGMAGVGCCAVFDFLEIFFNRPFLMIISDTKAHIALFMAKVTNPERSTNFPNGEGASSQRLESKRLCFGDPLCLIGQ
modifications: C-terminal 3xFLAG tag
notes: purified as C-terminal 3×FLAG protein or expressed from MIGR1 retrovirus in cells and bone-marrow chimeras
production of reactive oxygen species (ROS) (RelA^−/− MEFs [1]): suppressed | Expression of NF-κB complexes (p50/p50, p50/Rel) in nuclei (NF-κB): did not affect | second-order association rate constant for the inhibition of cathepsin B (cathepsin B; 20 nM cathepsin B, 5 μM (Z-FR)2-R110, 200 or 400 nM Spi2A, pseudo-first order conditions): > 10^6 M^−1 s^−1 | Inhibition of cathepsin B within the dead time of the measurement (cathepsin B; dead time ˜30 s, 200 or 400 nM Spi2A): completely inhibited | Inhibition of protease by Spi2A (percentage inhibition) (human cathepsin G): inhibited | Inhibition of protease by Spi2A (percentage inhibition) (caspase 9): did not extend to any of the caspases tested | mitochondrial depolarization (RelA^−/− MEFs [2]): virtually abrogated
